Experimental data taken from patent US20250064890A1, “PROTEIN COMPOSITIONS FOR THE TREATMENT OF INFLAMMATORY DISEASES” (Unichem Laboratories Limited, priority 2021, published 2025).
Like-named read-outs stand apart in the source and are kept apart here.

Key:
Type in all cases: cell-based, human
[1] = tested on: oral (buccal) mucosa cells (TR146)
Description: The protective effect of the recombinant lectin on survival of TR146 cells against 5-FU induced damage was determined using following calculations:
The viability of cells was determined as: % Cell viability=(100−% Cytotoxicity); • where, the percentage cytotoxicity corresponding to each treatment was calculated as: % Cytotoxicity=[(R−X)/R]*100, wherein X=Absorbance of cells treated with 5-FU or radiation damage/TI+5-FU, R=Absorbance of Control cells (Untreated) and Percentage protection was calculated as:
{(Absorbance of TI+5-FU or radiation)−(Absorbance of 5-FU or radiation alone)/(Absorbance of Untreated)−(Absorbance of 5-FU alone)}*100

[2] = tested on: oral (buccal) mucosa cells (TR146); test: Restoration of mitochondrial membrane potential (JC-1) against radiation induced damage; settings: for MMP: red/green JC-1 fluorescence ratio
Description: (§1) Oral buccal mucosal cells (TR146) were incubated overnight in 5% CO2 incubator at 37° C. for 24 h. […] After 24 h of treatment, cells were exposed to damage (5-FU 5 mM) for 1.25 h for chemotherapy induced inflammation and exposed to gamma radiation (3.5 kGy) using Cobalt 60 for radiation induced inflammation. After the exposure, the anti-apoptotic effect of SEQ ID NO 2 was determined by restoration of mitochondrial membrane depolarization by JC-1 staining and reduction in apoptotic cell populations (Annexin positive and subG0/G1 cells in cell cycle analysis).
After incubation, the supernatants were discarded and 100 μl of JC1-dye solution (prepared by diluting 1 mM DMSO stock into 10 μM in 1×PBS) was added to each well. The cells were then incubated with the dye in CO2 incubator at 37° C. for 15 min, after which the supernatant was removed, and the cells were washed twice with 1×PBS. 100 μl of 1×PBS was finally added to each well. Red fluorescence (excitation 550 nm, emission 600 nm) and green fluorescence (excitation 485 nm, emission 535 nm) were measured using Biotek Synergy HT plate reader. The mitochondrial membrane potential (Δψm) was calculated as the ratio of intensity of red fluorescence to intensity of green fluorescence.
The percentage increase/restoration in mitochondrial membrane potential (MMP) was calculated as: % Increase=[(R−X)/R]*100 • Where, X=Δψm corresponding to TI+5-FU treated cells or TI+radiation treated cells; R=Δψm corresponding to control cells (FU damaged or Radiation damaged alone)

[3] = tested on: oral (buccal) mucosa cells (TR146); test: Annexin positive cell population against radiation damage; settings: for % Apoptotic cells: Annexin positive
Description: as §1
To determine the reduction in apoptotic cell populations using annexin-v staining cells were gently harvested into pre-labeled sterile centrifuge tubes and centrifuged at 300×g for 5-7 min. Supernatant were discarded and the pellet was resuspended in 200 μl of fresh culture medium. 100 μl of cell suspension was transferred into pre-labeled sterile centrifuge tubes. 100 μl of Annexin-V reagent was added to each tube and incubated for 30 min at RT in dark. Cells stained for Annexin-V were then transferred into 96-well plates and acquired on flow cytometer (Guava technologies). Percentage of Annexin-V positive cells was calculated as follows:
={[% Annexin positive cells in 5-FU or radiation alone]−[% Annexin positive cells in (TI+5-FU) or (TI+radiation)]/% Annexin positive cells in 5-FU or radiation alone}*100

[4] = tested on: oral (buccal) mucosa cells (TR146); test: Sub(G0/G1) cell population (cell cycle) against radiation induced damage; settings: for % Decrease in Apoptotic cells (with respect to control): Sub G0/G1
Description: To determine the effect of test item on cell cycle, oral buccal mucosal cells (TR146) were incubated overnight in 5% CO2 incubator at 37° C. for 24 h. […] After 24 h of treatment, cells were exposed to chemotherapy (5-FU 10 mM) for 24 h or radiotherapy (Gamma radiation (3.5 kGy) using Cobalt 60) for 2 h.
After incubation, cells were harvested by trypsinization and processed for Cell cycle assay. Accordingly, cells were harvested into prelabeled centrifuge tubes and centrifuged at 450 g for 5 min at room temperature (RT, low brake). The supernatants were removed carefully and discarded. 1 ml of 1× phosphate buffer saline (PBS) was added to the pellet and resuspended gently to make homogenous suspension. Cells were centrifuged at 450 g for 5 min, RT (low brake). The supernatant was carefully removed leaving behind approx. 100 μl of PBS. Cells were resuspended gently yet thoroughly in residual PBS. Ice-cold 70% ethanol (100 μl) was added drop-wise into cells in each tube while vortexing at low speed (fixation step). Cells stored at 4° C. for 24 h were centrifuged at 450 g for 5 min, RT (low brake). The supernatant was carefully removed without touching the pellet and discarded. 1 ml of 1×PBS was added into pellet and resuspended gently. Cells were incubated for 1 minute at RT. Cells were centrifuged at 450 g for 5 min, RT (low brake). The supernatant was removed carefully without touching the pellet, leaving behind approx. 20-50 μl of PBS. 200 μl of cell cycle reagent was added into each tube. Cells were resuspended gently and mixed. Cells were incubated for 30 min at RT in the dark. The stained samples were transferred into 96-well plates and acquired on flow cytometer (Guava technologies). Percentage of cells in Sub (G0/G1) phase were determined based on the concept that cell cycle reagent contains PI stain, which stains DNA of cells in different phases of cell cycle; Sub (G0/G1), G1, S, G2 and M. Cells in Sub (G0/G1) phase correspond to apoptotic cells. Percent inhibition in apoptotic cells is determined by the formula:
=[(% Sub(G0/G1) cells in 5-FU/radiation alone)−(% Sub(G0/G1) cells in TI+5-FU/radiation)/% Sub(G0/G1) cells in 5-FU/radiation alone]*100

[5] = 100 ng/ml + Radiation (3.5 kGy)
[6] = 200 ng/ml + Radiation (3.5 kGy)

B1: EGF: positive control (PC-1 in Tables 4, 6, 8) in the radiation damage tests (protein, UniProt P01133 23-1207, looked up)
Pro-epidermal growth factor: PQHWSCPEGTLAGNGNSTCVGPAPFLIFSHGNSIFRIDTEGTNYEQLVVDAGVSVIMDFHYNEKRIYWVDLERQLLQRVFLNGSRQERVCNIEKNVSGMAINWINEEVIWSNQQEGIITVTDMKGNNSHILLSALKYPANVAVDPVERFIFWSSEVAGSLYRADLDGVGVKALLETSEKITAVSLDVLDKRLFWIQYNREGSNSLICSCDYDGGSVHISKHPTQHNLFAMSLFGDRIFYSTWKMKTIWIANKHTGKDMVRINLHSSFVPLGELKVVHPLAQPKAEDDTWEPEQKLCKLRKGNCSSTVCGQDLQSHLCMCAEGYALSRDRKYCEDVNECAFWNHGCTLGCKNTPGSYYCTCPVGFVLLPDGKRCHQLVSCPRNVSECSHDCVLTSEGPLCFCPEGSVLERDGKTCSGCSSPDNGGCSQLCVPLSPVSWECDCFPGYDLQLDEKSCAASGPQPFLLFANSQDIRHMHFDGTDYGTLLSQQMGMVYALDHDPVENKIYFAHTALKWIERANMDGSQRERLIEEGVDVPEGLAVDWIGRRFYWTDRGKSLIGRSDLNGKRSKIITKENISQPRGIAVHPMAKRLFWTDTGINPRIESSSLQGLGRLVIASSDLIWPSGITIDFLTDKLYWCDAKQSVIEMANLDGSKRRRLTQNDVGHPFAVAVFEDYVWFSDWAMPSVMRVNKRTGKDRVRLQGSMLKPSSLVVVHPLAKPGADPCLYQNGGCEHICKKRLGTAWCSCREGFMKASDGKTCLALDGHQLLAGGEVDLKNQVTPLDILSKTRVSEDNITESQHMLVAEIMVSDQDDCAPVGCSMYARCISEGEDATCQCLKGFAGDGKLCSDIDECEMGVPVCPPASSKCINTEGGYVCRCSEGYQGDGIHCLDIDECQLGEHSCGENASCTNTEGGYTCMCAGRLSEPGLICPDSTPPPHLREDDHHYSVRNSDSECPLSHDGYCLHDGVCMYIEALDKYACNCVVGYIGERCQYRDLKWWELRHAGHGQQQKVIVVAVCVVVLVMLLLLSLWGAHYYRTQKLLSKNPKNPYEESSRDVRSRRPADTEDGMSSCPQPWFVVIKEHQDLKNGGQPVAGEDGQAADGSMQPTSWRQEPQLCGMGTEQGCWIPVSSDKGSCPQVMERSFHMPSYGTQTLEGGVEKPHSLLSANPLWQQRALDPPHQMELTQ
modifications: Pro-epidermal growth factor
- % Protection ([1]; 10 ng/ml + Radiation (3.5 kGy)): 18%
- % Protection ([1]; 50 ng/ml + Radiation (3.5 kGy)): 44.4%
- % Protection [1, 5]: 46.5%
- % Protection [1, 6]: 8.8%
- % Increase in MMP (with respect to control) ([2]; 50 ng/ml + Radiation (3.5 kGy)): 41.8%
- MMP ([2]; 50 ng/ml + Radiation (3.5 kGy)): 6.53
- % Increase in MMP (with respect to control) [2, 5]: 33.4%
- MMP [2, 5]: 6.14
- % Increase in MMP (with respect to control) [2, 6]: 18.8%
- MMP [2, 6]: 5.47
- % Decrease in Apoptotic cells (with respect to radiation control) ([3]; 50 ng/ml + Radiation (3.5 kGy)): 0%
- % Apoptotic cells ([3]; 50 ng/ml + Radiation (3.5 kGy)): 13.7%
- % Decrease in Apoptotic cells (with respect to radiation control) [3, 5]: 35.9%
- % Apoptotic cells [3, 5]: 8.8%
- % Decrease in Apoptotic cells (with respect to radiation control) [3, 6]: −1.5%
- % Apoptotic cells [3, 6]: 13.9%
- % Apoptotic cells (Sub G0/G1) ([4]; 50 ng/ml + Radiation (3.5 kGy)): 10.8%
- % Decrease in Apoptotic cells (with respect to control) ([4]; 50 ng/ml + Radiation (3.5 kGy)): 69.5%
- % Apoptotic cells (Sub G0/G1) [4, 5]: 16.4%
- % Decrease in Apoptotic cells (with respect to control) [4, 5]: 53.5%
- % Apoptotic cells (Sub G0/G1) [4, 6]: 30.5%
- % Decrease in Apoptotic cells (with respect to control) [4, 6]: 13.7%
